Tests used:
[1] = molecular target: Recombinantly-expressed FolRα extracellular domain (Acro Biosystems) (Homo sapiens, UniProt P15328); experiment: SPR
[2] = molecular target: cynomolgus monkey FolRα overexpressed on CHO cells (Macaca fascicularis, UniProt A0A2K5U044); experiment: flow cytometry on cells

Kd [1]: 2.3 nM | binding result [2]: binds
B1: anti-FolRα antibody SP8166 (antibody, V domains shown)
VH: EVQLVESGGGLVQPGGSLRLSCAASGFNIRTQSIHWVRQAPGKGLEWIGDIFPIDGITDYADSVKGRFTISADTSKNTAYLQMNSLRAEDTAVYYCARGSWSWPSGMDYYLDYWGQGTLVTVSS
VL: not shown
